From paper doi:10.1101/2020.06.03.131664 (2020) come the findings set out here.

Holding throughout (assay): SPR; bivalent fitting model
(In general: In SPR one partner is held on a chip, and binding of the other changes the refractive index at the surface.)

Experiment [1] concerns the target HAdV-C5 capsid (human adenovirus type 5, species C, replication-defective vector particle) (human adenovirus type 5 (species C), UniProt P04133 1-952).
Experiment [2] concerns the target HAdV-B35 capsid (human adenovirus type 35, species B, replication-defective vector particle) (human adenovirus type 35 (species B)).
Experiment [3] addresses HAdV-D26 capsid (human adenovirus type 26, species D, replication-defective vector particle) (human adenovirus type 26 (species D)).

Sequence of HAdV-C5 capsid (human adenovirus type 5, species C, replication-defective vector particle) (P04133 whole entry, looked up): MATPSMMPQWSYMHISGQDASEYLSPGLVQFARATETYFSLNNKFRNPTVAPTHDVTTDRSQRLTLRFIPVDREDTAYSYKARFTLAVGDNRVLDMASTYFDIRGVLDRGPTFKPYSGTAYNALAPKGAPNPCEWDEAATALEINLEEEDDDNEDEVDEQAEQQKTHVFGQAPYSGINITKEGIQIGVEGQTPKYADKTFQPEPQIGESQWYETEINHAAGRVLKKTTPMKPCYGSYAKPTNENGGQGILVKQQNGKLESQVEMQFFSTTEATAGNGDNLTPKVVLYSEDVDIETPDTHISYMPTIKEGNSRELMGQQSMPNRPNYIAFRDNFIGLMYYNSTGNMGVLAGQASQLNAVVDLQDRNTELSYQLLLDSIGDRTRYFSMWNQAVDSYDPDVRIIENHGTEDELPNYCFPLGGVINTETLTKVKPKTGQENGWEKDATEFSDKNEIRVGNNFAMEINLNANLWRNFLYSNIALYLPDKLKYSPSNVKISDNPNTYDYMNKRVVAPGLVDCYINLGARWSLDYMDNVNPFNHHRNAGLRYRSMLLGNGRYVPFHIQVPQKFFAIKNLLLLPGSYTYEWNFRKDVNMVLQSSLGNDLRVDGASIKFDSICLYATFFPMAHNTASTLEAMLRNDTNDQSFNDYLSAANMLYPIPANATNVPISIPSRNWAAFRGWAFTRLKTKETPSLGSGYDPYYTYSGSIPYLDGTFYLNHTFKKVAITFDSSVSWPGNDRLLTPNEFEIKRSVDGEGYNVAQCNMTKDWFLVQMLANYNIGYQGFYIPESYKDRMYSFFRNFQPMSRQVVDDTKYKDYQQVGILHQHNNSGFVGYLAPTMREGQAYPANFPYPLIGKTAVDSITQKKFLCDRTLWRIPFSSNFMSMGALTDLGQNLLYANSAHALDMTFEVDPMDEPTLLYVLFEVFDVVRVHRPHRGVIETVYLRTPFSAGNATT

B1: human lactoferrin (natural protein)
chain: GRRRSVQWCAVSQPEATKCFQWQRNMRKVRGPPVSCIKRDSPIQCIQAIAENRADAVTLDGGFIYEAGLAPYKLRPVAAEVYGTERQPRTHYYAVAVVKKGGSFQLNELQGLKSCHTGLRRTAGWNVPIGTLRPFLNWTGPPEPIEAAVARFFSASCVPGADKGQFPNLCRLCAGTGENKCAFSSQEPYFSYSGAFKCLRDGAGDVAFIRESTVFEDLSDEAERDEYELLCPDNTRKPVDKFKDCHLARVPSHAVVARSVNGKEDAIWNLLRQAQEKFGKDKSPKFQLFGSPSGQKDLLFKDSAIGFSRVPPRIDSGLYLGSGYFTAIQNLRKSEEEVAARRARVVWCAVGEQELRKCNQWSGLSEGSVTCSSASTTEDCIALVLKGEADAMSLDGGYVYTAGKCGLVPVLAENYKSQQSSDPDPNCVDRPVEGYLAVAVVRRSDTSLTWNSVKGKKSCHTAVDRTAGWNIPMGLLFNQTGSCKFDEYFSQSCAPGSDPRSNLCALCIGDEQGENKCVPNSNERYYGYTGAFRCLAENAGDVAFVKDVTVLQNTDGNNNEAWAKDLKLADFALLCLDGKRKPVTEARSCHLAMAPNHAVVSRMDKVERLKQVLLHQQAKFGRNGSDCPDKFCLFQSETKNLLFNDNTECLARLHGKTTYEKYLGPQYVAGITNLKKCSTSPLLEACEFLRK
B1: the Kd in experiment [1] turned out to be 0.8 µM; in experiment [2] it was 54 µM; in experiment [3] it was 2.55 µM.
